Here are results for 8 molecules from patent publication US11891445 (ABL BIO, dated 2024).

Broadly, the EC50 (read off the curve) is the midpoint of the concentration-response curve.

B1: anti-B7-H3 antibody D8G M1 (full IgG form) (antibody, V domains shown)
VH: EVQLLESGGGLVQPGGSLRLSCAASGFTFSSYSMSWVRQAPGKGLEWVSGIYSDASNTYYADSVKGRFTISRDNSKNTLYLQMNSLRAEDTAVYYCAKMLHRFDYWGQGTLVTVSS
VL: QSVLTQPPSASGTPGQRVTISCSGSSSNIGSNSVTWYQQLPGTAPKLLIYADSQRPSGVPDRFSGSKSGTSASLAISGLRSEDEADYYCGTWDSSLNAYVFGGGTKLTVLG
B2: anti-B7-H3 antibody D8G M3 (full IgG form) (antibody, V domains shown)
VH: EVQLLESGGGLVQPGGSLRLSCAASGFTFSSYSMSWVRQAPGKGLEWVSGIYSDASNTYYADSVKGRFTISRDNSKNTLYLQMNSLRAEDTAVYYCAKMLHRFDYWGQGTLVTVSS
VL: QSVLTQPPSASGTPGQRVTISCSGSSSNIGSNSVTWYQQLPGTAPKLLIYADVQRPSGVPDRFSGSKSGTSASLAISGLRSEDEADYYCGTWDSSLNAYVFGGGTKLTVLG
B3: anti-B7-H3 scFv clone B5 (soluble monoclonal scFv) (scFv, part only; not given: linker, domain order and HA tag, V domains shown, not shown: another chain or arm of the molecule; small tags and cut ends)
VH: EVQLLESGGGLVQPGGSLRLSCAASGFTFSDYAMSWVRQAPGKGLEWVSSISSGSGSIYYADSVKGRFTISRDNSKNTLYLQMNSLRAEDTAVYYCAKNLIPLDYWGQGTLVTVSS
VL: QSVLTQPPSASGTPGQRVTISCSGSSSNIGSNAVSWYQQLPGTAPKLLIYYNSHRPSGVPDRFSGSKSGTSASLAISGLRSEDEADYYCGSWDASLNAYVFGGGTKLTVL
B4: anti-B7-H3 scFv clone D8G (soluble monoclonal scFv) (scFv, part only; not given: linker, domain order and HA tag, V domains shown, not shown: another chain or arm of the molecule; small tags and cut ends)
VH: EVQLLESGGGLVQPGGSLRLSCAASGFTFSSYSMSWVRQAPGKGLEWVSGIYSDGSNTYYADSVKGRFTISRDNSKNTLYLQMNSLRAEDTAVYYCAKMLHRFDYWGQGTLVTVSS
VL: QSVLTQPPSASGTPGQRVTISCSGSSSNIGSNSVTWYQQLPGTAPKLLIYADSQRPSGVPDRFSGSKSGTSASLAISGLRSEDEADYYCGTWDSSLNAYVFGGGTKLTVL
B5: anti-B7-H3 scFv clone D8G M1 (soluble monoclonal scFv) (scFv, part only; not given: linker, domain order and HA tag, V domains shown, not shown: another chain or arm of the molecule; small tags and cut ends)
VH: EVQLLESGGGLVQPGGSLRLSCAASGFTFSSYSMSWVRQAPGKGLEWVSGIYSDASNTYYADSVKGRFTISRDNSKNTLYLQMNSLRAEDTAVYYCAKMLHRFDYWGQGTLVTVSS
VL: QSVLTQPPSASGTPGQRVTISCSGSSSNIGSNSVTWYQQLPGTAPKLLIYADSQRPSGVPDRFSGSKSGTSASLAISGLRSEDEADYYCGTWDSSLNAYVFGGGTKLTVL
B6: anti-B7-H3 scFv clone C4I (soluble monoclonal scFv) (scFv, part only; not given: linker, domain order and HA tag, V domains shown, not shown: another chain or arm of the molecule; small tags and cut ends)
VH: EVQLLESGGGLVQPGGSLRLSCAASGFTFSGYYMSWVRQAPGKGLEWVSLISPSSGSIYYADSVKGRFTISRDNSKNTLYLQMNSLRAEDTAVYYCAKGLTKFDYWGQGTLVTVSS
VL: QSVLTQPPSASGTPGQRVTISCTGSSSNIGSNDVSWYQQLPGTAPKLLIYANSHRPSGVPDRFSGSKSGTSASLAISGLRSEDEADYYCGSWDDSLSGYVFGGGTKLTVL
B7: anti-B7-H3 scFv clone D8G M3 (soluble monoclonal scFv) (scFv, part only; not given: linker, domain order and HA tag, V domains shown, not shown: another chain or arm of the molecule; small tags and cut ends)
VH: EVQLLESGGGLVQPGGSLRLSCAASGFTFSSYSMSWVRQAPGKGLEWVSGIYSDASNTYYADSVKGRFTISRDNSKNTLYLQMNSLRAEDTAVYYCAKMLHRFDYWGQGTLVTVSS
VL: QSVLTQPPSASGTPGQRVTISCSGSSSNIGSNSVTWYQQLPGTAPKLLIYADVQRPSGVPDRFSGSKSGTSASLAISGLRSEDEADYYCGTWDSSLNAYVFGGGTKLTVL
B8: anti-B7-H3 scFv clone F6V (soluble monoclonal scFv) (scFv, part only; not given: linker, domain order and HA tag, V domains shown, not shown: another chain or arm of the molecule; small tags and cut ends)
VH: EVQLLESGGGLVQPGGSLRLSCAASGFTFSDYAMSWVRQAPGKGLEWVSGISPGGSNTYYADSVKGRFTISRDNSKNTLYLQMNSLRAEDTAVYYCAKDAWIARLLLFDYWGQGTLVTVSS
VL: QSVLTQPPSASGTPGQRVTISCSGSSSNIGSNAVTWYQQLPGTAPKLLIYYNNKRPSGVPDRFSGSKSGTSASLAISGLRSEDEADYYCGTWDDSLSGYVFGGGTKLTVL

In the first experiment the target is T1, recombinant human B7-H3 protein (bought antigen used for ELISA analysis and T cell activity analysis) (human, UniProt Q5ZPR3 29-461).
T1 construct: range 1-461; also called extracellular domain (ECD) of B7-H3 protein; not shown: C-terminal histidine tag or Fc region of human IgG1 (Sino Biological 11188-H02H)
T1 sequence (looked up): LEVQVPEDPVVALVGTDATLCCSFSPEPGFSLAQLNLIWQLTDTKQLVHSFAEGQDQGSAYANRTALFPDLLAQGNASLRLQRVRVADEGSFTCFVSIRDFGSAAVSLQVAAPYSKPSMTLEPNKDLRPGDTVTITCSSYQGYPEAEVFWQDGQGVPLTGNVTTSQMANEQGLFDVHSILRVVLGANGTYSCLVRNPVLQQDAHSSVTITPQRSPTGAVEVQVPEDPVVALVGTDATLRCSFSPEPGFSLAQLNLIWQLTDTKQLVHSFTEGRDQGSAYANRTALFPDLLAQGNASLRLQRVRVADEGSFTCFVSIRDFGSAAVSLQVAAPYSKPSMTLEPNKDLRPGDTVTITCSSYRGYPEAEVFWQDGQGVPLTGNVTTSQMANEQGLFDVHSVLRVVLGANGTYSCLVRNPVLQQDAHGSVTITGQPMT
In words: ELISA on plate-coated recombinant human B7-H3. On the procedure:
Specifically, after diluting the recombinant human B7-H3 protein at a concentration of 1 µg/ml and putting it into a 96-well plate (Nunc-Immuno Plates, NUNC) in 100 µl per well, it was reacted at 4° C. for 16 hrs for coating. The recombinant human B7-H3 protein used in Example 1 was used here.
Then, after removing the protein and washing it with PBST, a PBS buffer comprising 1% BSA (bovine serum albumin) was put at 200 µl per well and it was reacted at 37° C. for 2 hrs to block non-specific binding. Then, after diluting anti-B7-H3 antibodies prepared in Example 2 at a concentration of 10 µg/ml on the 96-well plate, 100 µl was put in each well and it was reacted at 37° C. for 1 hr. Then after it was washed with PBST. In order to detect antibodies bound to human B7-H3, HRP-connected anti-human IgG F(ab')2 antibody (Goat anti-Human IgG F(ab')2 Cross-Adsorbed Secondary Antibody, HRP, Pierce, 31414) was diluted by 1:10,000 in PBS comprising 1% bovine serum albumin (BSA), and 100 µl was put per well and it was reacted at 37° C. for about 1 hr. After washing it with PBST again, TMB (Tetramethylbenzidine, Sigma, T0440) 100 µl was put to develop color. After reacting it at RT for 5-10 min, 50 µl of 1N H_2SO_4 was put to finish the reaction, and the absorbance at 450 nm and 650 nm was measured by using a micro plate reader (molecular device).
On to B1, for which the “EC50 (read off the curve)” value was around 0.02 nM.
Still for that read-out and setting: the value for B2 was around 0.02 nM.

A further experiment has as its target T2, recombinant human B7-H3 protein with a histidine tag linked to the C terminal (2318-B3/CF, R&D Systems) (human) (UniProt Q5ZPR3).
T2 sequence (looked up): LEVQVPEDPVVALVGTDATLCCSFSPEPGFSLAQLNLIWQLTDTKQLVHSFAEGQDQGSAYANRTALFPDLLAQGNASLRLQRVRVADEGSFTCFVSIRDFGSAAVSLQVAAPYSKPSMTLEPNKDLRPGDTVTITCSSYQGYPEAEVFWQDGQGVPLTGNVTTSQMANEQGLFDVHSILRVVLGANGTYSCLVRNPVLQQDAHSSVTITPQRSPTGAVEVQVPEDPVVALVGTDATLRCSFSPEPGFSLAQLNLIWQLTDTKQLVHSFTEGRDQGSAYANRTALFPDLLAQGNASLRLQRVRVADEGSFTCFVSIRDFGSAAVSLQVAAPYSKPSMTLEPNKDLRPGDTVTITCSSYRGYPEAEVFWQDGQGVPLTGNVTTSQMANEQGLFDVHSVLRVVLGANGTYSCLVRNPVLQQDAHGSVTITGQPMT
The experiment in a line: ELISA, soluble scFv on coated B7-H3-His 100 ng per well, anti-HA HRP.
Consider B3, for which the absorbance at 450 nm worked out at 1.
Same read-out and setting: the figure for B4 is 1.
Still for that read-out and setting: the value for B5 was 1; that for B6 was 1.
Same read-out and setting: the value for B7 was 1.
As for B8, the absorbance at 450 nm was 1.
